Results: patent US20220332804A1 (CSL INNOVATION, published 2022)
Substitutions are numbered along the chain they refer to.

How the values were obtained:
Assay in all cases: SPR, antibody captured, C2 as analyte;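 note: biacore SPR at 37 °C, anti-C2 mAbs captured via goat anti-human IgG on CM5 chips, double-referenced sensorgrams fit to a 1:1 kinetic or steady-state model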
human C2 D441A = biological target: T1, human C2 D441A (human, UniProt P06681 21-752)
T1 sequence: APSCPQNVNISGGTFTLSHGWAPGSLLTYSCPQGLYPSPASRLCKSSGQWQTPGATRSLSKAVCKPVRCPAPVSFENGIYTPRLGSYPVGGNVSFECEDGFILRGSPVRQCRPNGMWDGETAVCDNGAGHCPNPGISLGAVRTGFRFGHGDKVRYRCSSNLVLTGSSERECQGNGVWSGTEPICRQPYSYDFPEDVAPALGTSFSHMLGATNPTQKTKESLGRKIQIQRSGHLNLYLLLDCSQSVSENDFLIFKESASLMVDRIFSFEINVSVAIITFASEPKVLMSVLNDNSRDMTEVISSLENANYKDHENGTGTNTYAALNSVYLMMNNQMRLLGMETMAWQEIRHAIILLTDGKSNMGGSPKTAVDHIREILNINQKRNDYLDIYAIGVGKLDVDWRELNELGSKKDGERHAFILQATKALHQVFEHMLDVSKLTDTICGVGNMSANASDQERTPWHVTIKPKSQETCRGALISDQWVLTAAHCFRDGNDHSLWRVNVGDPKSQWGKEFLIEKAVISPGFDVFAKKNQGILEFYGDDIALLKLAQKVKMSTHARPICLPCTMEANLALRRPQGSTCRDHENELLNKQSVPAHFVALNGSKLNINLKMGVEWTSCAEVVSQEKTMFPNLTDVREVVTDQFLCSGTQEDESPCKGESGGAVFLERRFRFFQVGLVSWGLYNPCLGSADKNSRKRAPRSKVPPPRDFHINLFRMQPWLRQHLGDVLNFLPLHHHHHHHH

[1] = biological target: T2, human complement C2 (wild type) (human, UniProt P06681 21-752)
T2 construct: Full-length human C2 (NP_000054) with C-terminal 8x His tag, secreted from Expi293F cells and purified from the supernatant; also called WT; huC2
T2 sequence: T1 sequence with A421D

human C2 S456A = biological target: T3, human C2 S456A (human, UniProt P06681 21-752)
T3 sequence: T1 sequence with A421D, S436A

B1: RF16-226 (antibody, human IgG4 S228P, lambda)
heavy: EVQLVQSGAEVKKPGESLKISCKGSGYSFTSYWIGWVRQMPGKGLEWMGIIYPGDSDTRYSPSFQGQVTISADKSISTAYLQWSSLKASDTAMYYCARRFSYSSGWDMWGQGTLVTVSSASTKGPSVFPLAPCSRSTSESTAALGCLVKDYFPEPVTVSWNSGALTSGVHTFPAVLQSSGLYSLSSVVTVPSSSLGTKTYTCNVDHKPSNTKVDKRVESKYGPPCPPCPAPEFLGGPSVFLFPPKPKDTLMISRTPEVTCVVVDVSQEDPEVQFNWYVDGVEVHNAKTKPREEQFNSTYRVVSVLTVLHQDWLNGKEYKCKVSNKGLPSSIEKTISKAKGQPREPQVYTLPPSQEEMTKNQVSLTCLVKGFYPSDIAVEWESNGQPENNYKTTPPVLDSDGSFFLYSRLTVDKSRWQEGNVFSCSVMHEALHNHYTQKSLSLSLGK
light: SYELTQPPSVSVSPGQTARITCSGDALTSKYVAWYQQKSGLAPLLVIYEDTRRPSGIPAKFSGSSSGSVATLTISGAHGDDEADYYCYSTDASGHQRVFGGGTKLTVLSQPKAAPSVTLFPPSSEELQANKATLVCLISDFYPGAVTVAWKADGSPVKAGVETTKPSKQSNNKYAASSYLSLTPEQWKSHRSYSCQVTHEGSTVEKTVAPTECS
notes: pH-dependent anti-C2 antibody from a phage display library; also called WT
Kd (human C2 D441A): 63.9 nM
Kd [1]: 10.1 nM
Kd (human C2 S456A): 71.8 nM
